In publication PMC6662825, “The MTR4 helicase recruits nuclear adaptors of the human RNA exosome using distinct arch-interacting motifs” (Nature Communications, 2019):

T1: MTR4-KOW (human, UniProt P42285 645-787)
T1 construct: human MTR4 KOW domain, residues 645–787; Named without GST in MST, NMR and ITC; the methods say the His-GST tag was cleaved with 3C protease 'when appropriate', so it was probably removed; Isotope-labelled for NMR; also called unlabeled MTR4 KOW; 15N-labelled MTR4-KOW; source: E. coli BL21 star (DE3), purified (Ni-NTA, heparin, SEC); minimal medium with 15N/13C for NMR
T1 sequence (looked up): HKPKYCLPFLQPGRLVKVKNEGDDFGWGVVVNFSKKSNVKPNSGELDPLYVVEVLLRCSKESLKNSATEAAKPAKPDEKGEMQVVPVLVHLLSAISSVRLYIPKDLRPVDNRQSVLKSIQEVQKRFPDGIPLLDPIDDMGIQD

T2: MTR4∆N2 (70–1042) (human, UniProt P42285 70-1042)
T2 construct: human MTR4; Crystallised with ADP and MgCl2 in the buffer; source: E. coli, purified; GST fusion cleaved with TEV; not shown: GST, N-terminal, cleaved
T2 sequence (looked up): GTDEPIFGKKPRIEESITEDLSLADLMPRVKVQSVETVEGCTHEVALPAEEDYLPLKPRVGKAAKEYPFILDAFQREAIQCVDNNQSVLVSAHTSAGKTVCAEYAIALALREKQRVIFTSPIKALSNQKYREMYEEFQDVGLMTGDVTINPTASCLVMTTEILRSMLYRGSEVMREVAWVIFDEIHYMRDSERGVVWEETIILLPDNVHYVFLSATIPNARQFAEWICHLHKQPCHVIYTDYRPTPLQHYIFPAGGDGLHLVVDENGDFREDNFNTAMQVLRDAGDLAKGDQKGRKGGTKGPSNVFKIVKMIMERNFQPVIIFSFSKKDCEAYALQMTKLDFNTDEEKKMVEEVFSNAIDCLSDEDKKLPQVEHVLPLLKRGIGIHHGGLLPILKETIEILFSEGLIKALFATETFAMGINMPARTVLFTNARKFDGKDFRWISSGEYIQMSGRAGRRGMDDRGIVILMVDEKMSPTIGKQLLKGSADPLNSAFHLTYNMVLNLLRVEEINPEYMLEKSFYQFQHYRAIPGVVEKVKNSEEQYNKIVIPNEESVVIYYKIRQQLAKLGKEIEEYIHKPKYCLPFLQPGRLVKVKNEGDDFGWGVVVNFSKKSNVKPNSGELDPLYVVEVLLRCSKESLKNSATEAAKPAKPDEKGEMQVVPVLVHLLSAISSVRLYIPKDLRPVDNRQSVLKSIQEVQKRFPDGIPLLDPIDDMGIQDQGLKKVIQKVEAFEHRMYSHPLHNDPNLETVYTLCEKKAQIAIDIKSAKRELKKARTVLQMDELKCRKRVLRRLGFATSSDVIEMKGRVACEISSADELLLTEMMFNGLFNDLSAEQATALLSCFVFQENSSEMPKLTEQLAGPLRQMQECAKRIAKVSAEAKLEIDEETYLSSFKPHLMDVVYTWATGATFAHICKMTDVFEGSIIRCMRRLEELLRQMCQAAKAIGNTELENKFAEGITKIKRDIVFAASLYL

T3: MTR4-∆N (human, UniProt P42285 75-1042)
T3 construct: Used in ITC, named without GST; the tag was probably cleaved ('when appropriate'); also called MTR4-∆N (the reactant); source: E. coli BL21 star (DE3), purified (Ni-NTA, heparin, SEC)
T3 sequence (looked up): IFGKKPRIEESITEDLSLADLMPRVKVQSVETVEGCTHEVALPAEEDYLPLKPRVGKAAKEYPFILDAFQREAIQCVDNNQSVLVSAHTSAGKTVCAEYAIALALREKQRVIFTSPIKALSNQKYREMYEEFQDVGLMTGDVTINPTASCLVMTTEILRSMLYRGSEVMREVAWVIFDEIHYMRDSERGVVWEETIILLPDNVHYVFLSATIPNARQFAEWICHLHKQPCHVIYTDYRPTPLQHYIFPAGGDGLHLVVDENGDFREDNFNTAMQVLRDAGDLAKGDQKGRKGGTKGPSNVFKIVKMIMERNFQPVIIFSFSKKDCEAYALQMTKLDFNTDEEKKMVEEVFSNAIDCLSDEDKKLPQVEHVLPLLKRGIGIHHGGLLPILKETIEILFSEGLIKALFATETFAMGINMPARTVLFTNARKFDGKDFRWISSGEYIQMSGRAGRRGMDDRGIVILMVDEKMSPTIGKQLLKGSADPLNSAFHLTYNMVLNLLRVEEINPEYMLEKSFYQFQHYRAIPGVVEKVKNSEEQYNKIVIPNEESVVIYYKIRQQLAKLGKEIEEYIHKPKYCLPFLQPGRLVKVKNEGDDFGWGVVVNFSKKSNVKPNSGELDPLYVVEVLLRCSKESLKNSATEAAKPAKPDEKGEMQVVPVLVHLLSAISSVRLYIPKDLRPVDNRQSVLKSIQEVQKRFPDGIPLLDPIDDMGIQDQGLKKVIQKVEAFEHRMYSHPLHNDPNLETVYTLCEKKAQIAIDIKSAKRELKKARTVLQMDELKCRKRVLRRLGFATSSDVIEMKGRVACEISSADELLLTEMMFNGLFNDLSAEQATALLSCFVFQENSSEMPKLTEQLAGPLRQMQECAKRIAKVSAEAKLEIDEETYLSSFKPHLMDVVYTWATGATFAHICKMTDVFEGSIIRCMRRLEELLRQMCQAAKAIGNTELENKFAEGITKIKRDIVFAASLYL

T4: GST-MTR4∆N R743E (human, UniProt P42285 75-1042, R743E)
T4 construct: also called R743E mutant; source: E. coli BL21 star (DE3), purified (Ni-NTA, heparin, SEC); not shown: 6xHis-GST, N-terminal, kept
T4 sequence (looked up): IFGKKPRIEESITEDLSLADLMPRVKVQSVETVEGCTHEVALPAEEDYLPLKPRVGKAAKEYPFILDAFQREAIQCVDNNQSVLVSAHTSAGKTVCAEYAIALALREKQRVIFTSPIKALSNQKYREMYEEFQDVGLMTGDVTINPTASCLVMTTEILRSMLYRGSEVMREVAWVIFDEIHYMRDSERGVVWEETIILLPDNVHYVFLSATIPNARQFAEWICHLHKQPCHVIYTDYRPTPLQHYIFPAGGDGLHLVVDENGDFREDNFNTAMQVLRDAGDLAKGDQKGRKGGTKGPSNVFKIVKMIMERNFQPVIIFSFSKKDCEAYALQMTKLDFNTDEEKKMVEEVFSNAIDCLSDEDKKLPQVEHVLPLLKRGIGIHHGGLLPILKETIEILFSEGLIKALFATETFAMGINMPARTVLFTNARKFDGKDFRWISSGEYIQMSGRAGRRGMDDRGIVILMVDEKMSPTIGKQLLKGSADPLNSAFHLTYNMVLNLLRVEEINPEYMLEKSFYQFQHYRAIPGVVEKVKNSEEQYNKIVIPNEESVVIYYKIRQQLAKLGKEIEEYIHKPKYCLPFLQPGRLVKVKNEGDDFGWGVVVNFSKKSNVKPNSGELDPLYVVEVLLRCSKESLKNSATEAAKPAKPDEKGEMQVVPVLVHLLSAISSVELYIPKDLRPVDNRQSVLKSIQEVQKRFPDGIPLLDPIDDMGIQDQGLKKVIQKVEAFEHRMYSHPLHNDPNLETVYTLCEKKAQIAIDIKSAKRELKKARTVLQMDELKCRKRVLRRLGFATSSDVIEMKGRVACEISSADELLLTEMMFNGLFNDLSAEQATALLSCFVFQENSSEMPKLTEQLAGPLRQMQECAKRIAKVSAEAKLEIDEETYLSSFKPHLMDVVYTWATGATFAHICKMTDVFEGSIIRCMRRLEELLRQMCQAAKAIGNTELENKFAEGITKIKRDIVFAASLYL

T5: GST-MTR4∆N F677E (human, UniProt P42285 75-1042, F677E)
T5 construct: source: E. coli BL21 star (DE3), purified (Ni-NTA, heparin, SEC); not shown: 6xHis-GST, N-terminal, kept
T5 sequence (looked up): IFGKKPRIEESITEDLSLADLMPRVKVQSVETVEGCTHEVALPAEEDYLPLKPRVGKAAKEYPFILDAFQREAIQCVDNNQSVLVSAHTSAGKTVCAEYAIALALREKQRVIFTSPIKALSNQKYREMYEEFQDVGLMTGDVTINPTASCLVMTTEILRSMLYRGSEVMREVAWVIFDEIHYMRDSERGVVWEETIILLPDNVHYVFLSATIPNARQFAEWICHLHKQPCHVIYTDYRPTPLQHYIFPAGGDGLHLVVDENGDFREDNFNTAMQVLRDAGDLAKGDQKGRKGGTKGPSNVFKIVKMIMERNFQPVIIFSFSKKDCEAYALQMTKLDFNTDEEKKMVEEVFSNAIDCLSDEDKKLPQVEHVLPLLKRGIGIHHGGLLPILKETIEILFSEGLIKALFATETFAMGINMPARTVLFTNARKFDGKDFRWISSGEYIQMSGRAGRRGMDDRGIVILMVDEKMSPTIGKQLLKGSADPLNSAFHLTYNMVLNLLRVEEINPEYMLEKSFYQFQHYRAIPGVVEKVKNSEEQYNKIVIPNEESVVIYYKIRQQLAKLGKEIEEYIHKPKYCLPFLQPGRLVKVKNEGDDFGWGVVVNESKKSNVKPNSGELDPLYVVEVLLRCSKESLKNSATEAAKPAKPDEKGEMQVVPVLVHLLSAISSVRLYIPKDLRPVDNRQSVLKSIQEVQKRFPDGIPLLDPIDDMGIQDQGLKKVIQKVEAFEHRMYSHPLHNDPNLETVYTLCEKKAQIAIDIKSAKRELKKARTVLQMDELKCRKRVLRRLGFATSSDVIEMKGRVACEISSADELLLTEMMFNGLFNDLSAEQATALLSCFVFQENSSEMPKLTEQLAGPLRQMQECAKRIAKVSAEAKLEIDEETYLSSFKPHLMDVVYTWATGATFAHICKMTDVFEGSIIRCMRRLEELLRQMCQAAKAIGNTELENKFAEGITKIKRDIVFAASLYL

T6: GST-MTR4-∆N (human, UniProt P42285 75-1042)
T6 construct: Tag is cleavable with 3C protease; kept for the GST pull-downs; also called GST-tagged MTR4∆N; source: E. coli BL21 star (DE3), purified (Ni-NTA, heparin, SEC); not shown: 6xHis-GST, N-terminal, kept
T6 sequence (looked up): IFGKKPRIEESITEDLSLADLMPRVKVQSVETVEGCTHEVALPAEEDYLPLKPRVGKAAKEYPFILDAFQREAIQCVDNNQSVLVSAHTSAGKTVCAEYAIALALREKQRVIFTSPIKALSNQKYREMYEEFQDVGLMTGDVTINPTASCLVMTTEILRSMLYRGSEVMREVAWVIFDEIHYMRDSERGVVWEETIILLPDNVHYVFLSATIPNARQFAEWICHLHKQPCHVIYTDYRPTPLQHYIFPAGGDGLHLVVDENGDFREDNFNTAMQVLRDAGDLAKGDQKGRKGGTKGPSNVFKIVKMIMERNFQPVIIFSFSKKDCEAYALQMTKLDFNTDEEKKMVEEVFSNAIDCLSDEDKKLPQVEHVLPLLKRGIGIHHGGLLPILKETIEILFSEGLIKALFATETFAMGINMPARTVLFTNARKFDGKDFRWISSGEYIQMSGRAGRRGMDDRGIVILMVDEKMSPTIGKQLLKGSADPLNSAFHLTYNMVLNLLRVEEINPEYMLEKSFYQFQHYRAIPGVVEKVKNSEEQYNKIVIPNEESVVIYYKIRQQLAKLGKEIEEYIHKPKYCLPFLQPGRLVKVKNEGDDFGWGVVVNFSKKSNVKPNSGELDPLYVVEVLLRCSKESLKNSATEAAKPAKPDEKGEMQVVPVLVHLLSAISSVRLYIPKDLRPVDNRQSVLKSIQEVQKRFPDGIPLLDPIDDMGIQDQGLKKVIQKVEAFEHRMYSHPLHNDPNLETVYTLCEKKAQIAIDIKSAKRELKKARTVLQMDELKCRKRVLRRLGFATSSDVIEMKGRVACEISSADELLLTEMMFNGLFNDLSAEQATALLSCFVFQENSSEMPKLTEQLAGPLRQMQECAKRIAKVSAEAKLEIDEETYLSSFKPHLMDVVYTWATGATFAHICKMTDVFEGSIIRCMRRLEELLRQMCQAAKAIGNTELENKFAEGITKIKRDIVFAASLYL


What was measured:
Conditions in all cases: both partners purified
MTR4-KOW = molecular target: T1, MTR4-KOW; assay: NMR titration; 1H-15N HSQC of 53 μM 15N-labelled MTR4-KOW with 0.25, 0.5, 1, 2 and 6 molar equivalents of unlabeled NVL^167–216; 298 K; phosphate buffered saline, 10% D2O
MTR4∆N2 (70–1042) = molecular target: T2, MTR4∆N2 (70–1042); assay: crystal structure; MTR4∆N2 (70–1042) mixed with 2 molar excess of NVL (167–216), with ADP and MgCl2; 3.07 Å, space group P6(1); PDB 6RO1
MTR4-∆N = molecular target: T3, MTR4-∆N; assay: ITC; 500 µM NVL injected into 40 µM MTR4-∆N; 25 °C; 50 mM Hepes/NaOH pH 7.5, 150 mM NaCl, 0.5 mM TCEP
GST-MTR4∆N R743E = molecular target: T4, GST-MTR4∆N R743E; assay: pull-down; GST-MTR4∆N (WT or mutants) as bait, 30 μM, with 60 μM Trx-NOP53^84–123 in 30 μl, glutathione sepharose; 50 mM Hepes pH 7.5, 150 mM NaCl, 5% glycerol, 0.05% NP40, 1 mM DTT, 4 °C; SDS-PAGE, Coomassie
GST-MTR4∆N F677E = molecular target: T5, GST-MTR4∆N F677E; assay: as above
GST-MTR4-∆N = molecular target: T6, GST-MTR4-∆N; assay: as above

Row | binding result (MTR4-KOW) | binding result (MTR4∆N2 (70–1042)) | binding result (MTR4-∆N) | binding result (GST-MTR4∆N R743E) | binding result (GST-MTR4∆N F677E) | binding result (GST-MTR4-∆N) | Binder
1 | binds | binds | binds |  |  |  | KDSEGGWFIDKTPSVKKDSFFLDLSCEKSNPKKPITEIQDSKDSSLLESD (peptide, UniProt O15381 167-216, looked up, Named without Trx in ITC, NMR and crystallisation; the methods say tags were cleaved with 3C protease 'when appropriate', so the tag was probably removed; also called NVL peptide; source: E. coli BL21 star (DE3), purified (Ni-NTA, SEC)) [NVL^167–216]
2 |  |  |  | binds | binds | binds | Trx-NOP53^84–123 (domain or fragment, human NOP53 (also known as GLTSCR2), residues 84–123; also called human Nop53 orthologue; human Nop53; not shown: Trx, N-terminal, kept) not shown
